Test results: patent US20210063414A1, “METHODS FOR PREVENTING AND/OR TREATING BONE LOSS CONDITIONS BY MODULATING IRISIN” (Dana-Farber Cancer Institute, Inc., priority 2018, published 2021)

Legend:
[1] = tested on: sclerostin; test: Irisin injection in mice: sclerostin mRNA in osteocyte-enriched bones and plasma sclerostin protein (ELISA); type: in vivo; conditions: irisin IP daily for 6 days
Protocol: 8 weeks old mice were injected daily with indicated dose of irisin for 6 days. […] were collected and treated with collagenase to yield osteocyte-enriched bones. Sclerostin mRNA level from osteocyte-enriched tibia was analyzed by qPCR (FIG. 7A). Cyclophilin was used as a house-keeping gene. Plasma was collected to analyze the circulating sclerostin protein level by ELISA assay (FIG. 7B). Data are represented as mean±SEM. For FIG. 7A and FIG. 7B, n=5 animals/group. * indicates p<0.05, and *** indicates p<0.001.
Certain materials and methods were used to generate the results described herein. For example, the data shown in FIG. 1A resulted from MLO-Y4 (an osteocyte-like cell line) cells treated with the indicated concentration of irisin and hydrogen peroxide for 4 hours. Cells were stained with Hoechst 33342 (ThermoFisher Scientific, catalog number H3570) and Eth-D1 (ThermoFisher Scientific, catalog number E1169) and analyzed to determine the percentage of cell death using ImageJ. […] Co-precipitated irisin was analyzed by immunoblot analysis against flag tag (Sigma Aldrich, catalog number A8592). The data shown in FIGS. 5A and 5B were generated from MLO-Y4 cells treated and analyzed as in the experiments used to generate the data shown in FIG. 2D, except that pre-treatment of 100 nM RGDS (FIG. 5A) or echistatin (R & D Systems Inc., catalog number 3202/100U) (FIG. 5B) for 10 minutes was performed before irisin treatment. […] RNAs were extracted from the cells and the sclerostin mRNA level was analyzed by qPCR (FIG. 6A) or treated and analyzed as in (FIG. 6A), except that pre-treatment of 10 μM RGDS, RGDyK (Selleck, catalog number S7844), or echistatin was performed for 10 minutes before irisin treatment. […] Sclerostin mRNA level was analyzed by qPCR (FIG. 7A). […] Epididymal fats were collected, RNAs were extracted from the tissues, and mRNA levels of the indicated genes were analyzed by qPCR. […]

[2] = biological target: T1, integrin α5/β1 (Homo sapiens, UniProt P05556+P08648); test: FAK phosphorylation in HEK293T cells with forced expression of integrin α5/β1; type: cell-based
T1 construct: expressed in transfected cells; host or cells: HEK293T
Protocol: 100 nM irisin was incubated with 5 nM indicated his-tag integrins followed by immunoprecipitation using Ni-NTA agaroses. Precipitated integrins and co-precipitated irisin were analyzed by immunoblot analysis. […] HEK293T cells were seeded and incubated until 50% cell density. The cells were transfected with 0.1 μg plasmids of indicated integrins. After 48 hours, the cells were re-split to indicated dose of vitronectin-coated plates. Cells were incubated with culture medium for 3 hours. Cells were lysed to detect the indicated protein level using immunoblot analysis. FIG. 15C and FIG. 15D show the immunoblot data. Cells were treated and analyzed as FIG. 14B except using plasmids encoding integrin α5/β1 or integrin α11/β1 (FIG. 15C) integrin αV/β1(FIG. 15D).
HEK293T cells were set up for experiments at 1×10^5 cells per well in 6 well plate. On day 2, cells were transiently transfected with the indicated plasmids with FuGENE® 6 reagent (Roche Applied Science) according to the manufacturer's protocol. […]
Cells were harvested in RIPA buffer containing protease-inhibitor cocktail and phosphataseinhibitor cocktail. […] Protein levels were analyzed via western blot using indicated antibody. […] Protein levels were analyzed using western blot against indicated antibody.

T1 sequence (P08648 42-894 limits assumed): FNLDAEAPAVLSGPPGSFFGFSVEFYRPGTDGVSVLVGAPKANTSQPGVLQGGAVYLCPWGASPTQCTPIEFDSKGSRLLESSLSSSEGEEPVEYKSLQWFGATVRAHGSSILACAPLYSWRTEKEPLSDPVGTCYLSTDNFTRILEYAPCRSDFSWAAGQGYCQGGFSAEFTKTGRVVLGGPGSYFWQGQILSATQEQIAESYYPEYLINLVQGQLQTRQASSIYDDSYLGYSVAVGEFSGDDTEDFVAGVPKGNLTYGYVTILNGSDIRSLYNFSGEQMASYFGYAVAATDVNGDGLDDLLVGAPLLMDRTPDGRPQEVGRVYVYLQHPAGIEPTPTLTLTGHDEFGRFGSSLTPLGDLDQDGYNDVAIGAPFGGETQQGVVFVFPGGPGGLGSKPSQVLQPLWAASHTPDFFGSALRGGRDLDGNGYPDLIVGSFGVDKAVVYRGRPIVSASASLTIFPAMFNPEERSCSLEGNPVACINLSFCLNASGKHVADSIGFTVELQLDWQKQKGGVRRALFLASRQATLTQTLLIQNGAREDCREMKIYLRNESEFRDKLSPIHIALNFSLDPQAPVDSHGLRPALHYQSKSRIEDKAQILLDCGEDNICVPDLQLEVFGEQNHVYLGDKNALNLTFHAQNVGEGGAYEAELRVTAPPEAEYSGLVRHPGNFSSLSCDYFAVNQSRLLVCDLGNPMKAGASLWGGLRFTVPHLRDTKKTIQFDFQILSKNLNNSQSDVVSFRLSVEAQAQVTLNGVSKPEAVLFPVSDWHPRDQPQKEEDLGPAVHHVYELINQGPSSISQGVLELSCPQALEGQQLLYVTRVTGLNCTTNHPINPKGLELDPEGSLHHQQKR
T1 sequence (P08648 895-1049 partner limits assumed): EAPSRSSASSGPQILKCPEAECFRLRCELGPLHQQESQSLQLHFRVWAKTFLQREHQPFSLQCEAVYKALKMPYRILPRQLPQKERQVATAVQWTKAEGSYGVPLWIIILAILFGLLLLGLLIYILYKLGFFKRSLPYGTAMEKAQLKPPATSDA
T1 sequence (P05556 21-798): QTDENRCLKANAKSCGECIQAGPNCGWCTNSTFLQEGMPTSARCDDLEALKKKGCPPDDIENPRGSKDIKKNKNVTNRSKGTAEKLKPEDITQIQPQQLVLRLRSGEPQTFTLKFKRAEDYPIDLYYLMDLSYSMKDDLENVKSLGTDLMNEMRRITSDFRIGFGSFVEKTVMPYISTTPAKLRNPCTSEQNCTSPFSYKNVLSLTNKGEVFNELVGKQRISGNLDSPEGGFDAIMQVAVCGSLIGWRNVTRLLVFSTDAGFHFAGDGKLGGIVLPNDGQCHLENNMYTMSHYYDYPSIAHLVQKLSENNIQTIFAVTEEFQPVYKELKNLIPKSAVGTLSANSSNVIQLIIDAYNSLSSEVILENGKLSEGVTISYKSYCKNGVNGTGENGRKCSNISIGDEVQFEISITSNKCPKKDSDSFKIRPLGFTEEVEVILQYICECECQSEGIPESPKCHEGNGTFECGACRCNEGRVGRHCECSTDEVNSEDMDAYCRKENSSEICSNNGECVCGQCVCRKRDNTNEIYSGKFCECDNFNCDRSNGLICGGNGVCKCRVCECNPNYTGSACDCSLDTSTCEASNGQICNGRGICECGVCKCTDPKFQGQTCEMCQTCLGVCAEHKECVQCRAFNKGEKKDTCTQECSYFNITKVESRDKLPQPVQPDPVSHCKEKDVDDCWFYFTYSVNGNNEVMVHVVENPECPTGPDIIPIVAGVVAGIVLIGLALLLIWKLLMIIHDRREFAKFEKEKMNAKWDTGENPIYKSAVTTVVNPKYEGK

B1: irisin: secreted cleaved form of FNDC5; recombinant human/mouse irisin with C-terminal his tag produced in HEK293 cells (protein)
chain: DSPSAPVNVTVRHLKANSAVVSWDVLEDEVVIGFAISQQKKDVRMLRFIQEVNTTTRSCALWDLEEDTEYIVHVQAISIQGQSPASEPVLFKTPREAEKMASKNKDEVTMKE
modifications: left off: small tags and cut ends
notes: secreted cleaved form of FNDC5; recombinant human/mouse irisin with C-terminal his tag produced in HEK293 cells
[1]
  sclerostin mRNA in osteocyte-enriched bones: stimulated sclerostin mRNA
[1]; ELISA
  circulating (plasma) sclerostin protein: significant increase
[1]; listed as recombinant irisin
  sclerostin mRNA in osteocyte-enriched bones: raised the sclerostin mRNA level
[2]
  phosphorylation of FAK upon irisin treatment: little phosphorylation of FAK above background
